Assay results from patent publication US8580269B2, “Survivin peptides for autoimmune therapies” (Health Research, Inc., priority 2007, dated 2013).

What was measured:
HLA-A*0201 [1] = biological target: T1, HLA-A*0201 (Homo sapiens, UniProt P04439, D140Y/D185E/D98H/E176V/E277Q/G131W/G231S/I119V/I121R/I166T/I218V/L300P/L318F/N151K/N90K/P208A/P217A/Q86G/Q94H/R138H/R169H/T345S); assay: MHC class I peptide competitive displacement assay; conditions: displacement of labeled HPV18-27, FIG. 4A-B
Description: (§1) FIGS. 4A, 4B and 4C provide a graphical representations of data from an analysis of HLA-A*0201 binding properties of survivin peptides. To obtain the data summarized in FIGS. 4A and 4B, survivin peptide epitopes were used in MHC class I peptide competitive displacement assays. IC50 represents the 50% inhibition concentration of survivin peptide required to displace a fluorescently labeled-known human MHC Class I ligand (HPV18-27). Positive control peptides (Flu & gp100) represent known immunogenic MHC class I ligands. Data represent mean fluorescence±S.E.M. of triplicate samples. FIG. 4C provides a graphical representation of data for specific HLA-A*0201 pentamer binding of wild type and altered survivin peptide epitopes.
(§2) As such, both peptides will bind H-2 Kb (the murine MHC class I counterpart) to a similar extent in mice. […] However, it is in administration to humans that the peptides of the invention are expected to display their enhanced potential, since the alteration of 57C to M alters the wild type peptide so that it contains a sequence that facilitates improved interaction with human MHC I. This is supported by the disparate MHC class I binding characteristics of the wild type and M57 peptides (FIG. 4A-C). As determined by competitive peptide binding assays, SVN53-67/M57 binds HLA-A*0201 approximately 12 fold stronger than the wild type SVN53-67 (FIG. 4A-B). […]

HLA-A*0201 [2] = biological target: T1, HLA-A*0201; assay: survivin/MHC Class I-specific pentamer binding
Description: as §1, §2

GL261 cells = assay: intracranial survival study in GL261 murine glioma model; assay type: in vivo, C57BL/6 mice; conditions: peptide loaded DC vaccine, GL261-C57BL/6 glioma model, FIG. 6
Protocol: FIG. 6 provides a graphical representation of data obtained from intracranial survival studies in a GL261 murine model utilizing altered peptides based on survivin amino acids 53-67. The peptides were administered using peptide loaded dendritic cell (DC) vaccines or as Keyhole Limpet Hemocyanin (KLH) conjugates. To obtain the data presented in FIG. 6, mice were intracranially implanted with 1×10^5 GL261 cells and were treated with survivin peptide DC vaccines. C57BL/6 mice were immunized with SVN57-64 based altered peptides, or OVA258-265 peptide loaded DC2.4 cells as well as a direct subcutaneous injection of 100 ug SVN 53-67/M57-KLH peptide in Incomplete Freund's Adjuvant (IFA) plus 100 ug GM-CSF. Vaccinations began 4 days after tumor cell implantation and were repeated (boosted) every 7 days to simulate a therapeutic setting. Survival was plotted according to Kaplan-Meier methods. Long-term survivors were confirmed tumor-free by high field strength MRI.

H2-K^b = biological target: T2, H2-K^b (Mus musculus, UniProt P01901); assay: MHC class I peptide binding assay, upregulation of H2-K^b on RMA-S cells; assay type: cell-based, murine; conditions: 100 μM peptide at 37° C., FIG. 3
T2 construct: Upregulation of H2-K^b molecules on the surface of murine RMA-S cells; endogenous in cells; host or cells: murine RMA-S cells
T2 sequence (P01901 22-369): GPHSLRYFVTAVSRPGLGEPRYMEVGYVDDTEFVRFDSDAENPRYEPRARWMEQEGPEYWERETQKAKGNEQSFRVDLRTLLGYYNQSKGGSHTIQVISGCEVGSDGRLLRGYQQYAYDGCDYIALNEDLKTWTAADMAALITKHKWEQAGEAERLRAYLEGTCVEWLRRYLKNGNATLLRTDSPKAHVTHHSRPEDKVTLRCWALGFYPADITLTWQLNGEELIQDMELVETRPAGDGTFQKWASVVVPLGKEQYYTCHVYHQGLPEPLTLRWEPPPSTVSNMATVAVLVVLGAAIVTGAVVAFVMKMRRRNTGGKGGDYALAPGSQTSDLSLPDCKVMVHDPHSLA
T2 sequence (P01887 21-119 partner): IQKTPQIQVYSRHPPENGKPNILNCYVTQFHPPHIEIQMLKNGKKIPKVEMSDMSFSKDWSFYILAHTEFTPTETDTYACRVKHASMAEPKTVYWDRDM
Protocol: To obtain the data presented in FIG. 3, survivin peptide epitopes were used in conventional MHC class I peptide binding assays. Mean fluorescence in FIG. 3 represents binding of SVN peptides to H2-K^b. Upregulation of H2-K^b molecules on the surface of murine RMA-S cells which are deficient in the expression of surface MHC class I molecules was used to determine actual survivin peptide binding in vitro. Data presented in FIG. 3 represent the binding of 100 μM peptide at 37° C.

DLAQMFFCFKELEGW (SVN53-67/M57 with C to M change)
HLA-A*0201 binding relative to wild type SVN53-67 (HLA-A*0201 [1]): approximately 12 fold | increase of MHC I binding relative to the wild type sequence (HLA-A*0201 [2]; in situ binding assays for HLA-A*0201, FIG. 2 and FIG. 4C): approximately 73 fold

M F F C F K E L (MFFCFKEL; SVN-57-64/M57 mutant peptide)
survival compared to wild type peptide (GL261 cells): enhances survival over the wild type peptide

SVN56-64/M57: core peptide, survivin 56-64 with the C>M alteration at position 57 (QMFFCFKEL)
HLA-A*0201 binding relative to wild type SVN56-64 (HLA-A*0201 [2]; pentamer, FIG. 4C): approximately 73 fold

T L G E F L K L [SVN-97]
binding of SVN peptides to H2-K^b (mean fluorescence) (H2-K^b): less than SVN 57-64 wt, and considerably less than SVN 57-64/M57
